What all share (assay): SPR; Biacore 8K or 8K+, 25 °C, HBS-EP+ pH 7.4; IgG captured (400–425 RU) by goat anti-human Fc on CM5; human FcγRI 100 nM injected; response units at one concentration
(In general: Surface plasmon resonance follows binding to a sensor surface in real time, without labels.)

The target in test [1] is ADI-26906 IgG1 LALA-L309A (L234A/L235A/L309A) (human).
Test [2] concerns the target ADI-26906 IgG1 LALA-H268Q (L234A/L235A/H268Q) (human).
In test [3] the target is ADI-26906 IgG1 LALA-P331S (L234A/L235A/P331S) (human).
Test [4] deals with ADI-26906 IgG1 LALA-A327G (L234A/L235A/A327G) (human).
The target of test [5] is ADI-26906 IgG1 LALE-A330S (L234A/L235E/A330S) (human).
In test [6] the target is ADI-26906 IgG1 LALA-A330S/P331S (L234A/L235A/A330S/P331S) (human).
Test [7] concerns the target ADI-26906 IgG1 LALE-L309V (L234A/L235E/L309V) (human).
In test [8] the target is ADI-26906 IgG1 LALE-A330S/P331S (L234A/L235E/A330S/P331S) (human).
Test [9] has as its target ADI-26906 IgG1 LALE-H268Q (L234A/L235E/H268Q) (human).
Test [10] has as its target ADI-26906 IgG1 LALA-L328A (L234A/L235A/L328A) (human).
Test [11] addresses ADI-26906 IgG1 LALE-D270A (L234A/L235E/D270A) (human).
In test [12] the target is ADI-26906 IgG1 LALE-L328A (L234A/L235E/L328A) (human).
For test [13], the target named is ADI-26906 IgG1 LALA-K322A (L234A/L235A/K322A) (human).
Test [14] deals with ADI-26906 IgG1 LALA-A330S (L234A/L235A/A330S) (human).
Test [15] deals with ADI-26906 IgG1 LALA-D270A (L234A/L235A/D270A) (human).
In test [16] the target is ADI-26906 IgG1 LALA-Y296F (L234A/L235A/Y296F) (human).
Test [17] addresses ADI-26906 IgG1 LALA-L309V (L234A/L235A/L309V) (human).
Test [18] concerns the target ADI-26906 IgG1 L234A/L235A (human).
Test [19] deals with ADI-26906 IgG1 L234A/L235E (human).
The target of test [20] is ADI-26906 IgG1 LALE-P331S (L234A/L235E/P331S) (human).
The target of test [21] is ADI-26906 IgG1 LALE-L309A (L234A/L235E/L309A) (human).
Test [22] concerns the target ADI-26906 IgG1 LALE-K322A (L234A/L235E/K322A) (human).

In PMC10526015 one finds response (RU) data, which are given here for one substance.

Chain of ADI-26906 IgG1 LALA-L309A (L234A/L235A/L309A) (human) (heavy, as listed by the source, chain 1 of 2): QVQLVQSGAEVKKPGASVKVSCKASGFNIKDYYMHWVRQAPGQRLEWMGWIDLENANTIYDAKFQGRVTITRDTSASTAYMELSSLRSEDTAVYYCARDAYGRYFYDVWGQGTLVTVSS
Chain of ADI-26906 IgG1 LALA-L309A (L234A/L235A/L309A) (human) (light, as listed by the source, chain 2 of 2): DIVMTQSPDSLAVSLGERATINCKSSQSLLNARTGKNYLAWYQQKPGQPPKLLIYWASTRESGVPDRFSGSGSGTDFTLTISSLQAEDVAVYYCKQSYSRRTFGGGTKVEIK
Chain of ADI-26906 IgG1 LALE-L309V (L234A/L235E/L309V) (human) (heavy, as listed by the source, chain 1 of 2): as the sequence (heavy, as listed by the source, chain 1 of 2) above
Chain of ADI-26906 IgG1 LALE-L309V (L234A/L235E/L309V) (human) (light, as listed by the source, chain 2 of 2): as the sequence (light, as listed by the source, chain 2 of 2) above
Chain of ADI-26906 IgG1 LALA-H268Q (L234A/L235A/H268Q) (human) (heavy, as listed by the source, chain 1 of 2): as the sequence (heavy, as listed by the source, chain 1 of 2) above
Chain of ADI-26906 IgG1 LALA-H268Q (L234A/L235A/H268Q) (human) (light, as listed by the source, chain 2 of 2): as the sequence (light, as listed by the source, chain 2 of 2) above
Chain of ADI-26906 IgG1 LALA-K322A (L234A/L235A/K322A) (human) (heavy, as listed by the source, chain 1 of 2): as the sequence (heavy, as listed by the source, chain 1 of 2) above
Chain of ADI-26906 IgG1 LALA-K322A (L234A/L235A/K322A) (human) (light, as listed by the source, chain 2 of 2): as the sequence (light, as listed by the source, chain 2 of 2) above
Chain of ADI-26906 IgG1 LALA-A330S (L234A/L235A/A330S) (human) (heavy, as listed by the source, chain 1 of 2): as the sequence (heavy, as listed by the source, chain 1 of 2) above
Chain of ADI-26906 IgG1 LALA-A330S (L234A/L235A/A330S) (human) (light, as listed by the source, chain 2 of 2): as the sequence (light, as listed by the source, chain 2 of 2) above
Chain of ADI-26906 IgG1 LALA-D270A (L234A/L235A/D270A) (human) (heavy, as listed by the source, chain 1 of 2): as the sequence (heavy, as listed by the source, chain 1 of 2) above
Chain of ADI-26906 IgG1 LALA-D270A (L234A/L235A/D270A) (human) (light, as listed by the source, chain 2 of 2): as the sequence (light, as listed by the source, chain 2 of 2) above
Chain of ADI-26906 IgG1 LALE-K322A (L234A/L235E/K322A) (human) (heavy, as listed by the source, chain 1 of 2): as the sequence (heavy, as listed by the source, chain 1 of 2) above
Chain of ADI-26906 IgG1 LALE-K322A (L234A/L235E/K322A) (human) (light, as listed by the source, chain 2 of 2): as the sequence (light, as listed by the source, chain 2 of 2) above
Chain of ADI-26906 IgG1 LALE-L309A (L234A/L235E/L309A) (human) (heavy, as listed by the source, chain 1 of 2): as the sequence (heavy, as listed by the source, chain 1 of 2) above
Chain of ADI-26906 IgG1 LALE-L309A (L234A/L235E/L309A) (human) (light, as listed by the source, chain 2 of 2): as the sequence (light, as listed by the source, chain 2 of 2) above
Chain of ADI-26906 IgG1 LALE-A330S (L234A/L235E/A330S) (human) (heavy, as listed by the source, chain 1 of 2): as the sequence (heavy, as listed by the source, chain 1 of 2) above
Chain of ADI-26906 IgG1 LALE-A330S (L234A/L235E/A330S) (human) (light, as listed by the source, chain 2 of 2): as the sequence (light, as listed by the source, chain 2 of 2) above
Chain of ADI-26906 IgG1 LALA-A330S/P331S (L234A/L235A/A330S/P331S) (human) (heavy, as listed by the source, chain 1 of 2): as the sequence (heavy, as listed by the source, chain 1 of 2) above
Chain of ADI-26906 IgG1 LALA-A330S/P331S (L234A/L235A/A330S/P331S) (human) (light, as listed by the source, chain 2 of 2): as the sequence (light, as listed by the source, chain 2 of 2) above
Chain of ADI-26906 IgG1 LALA-L309V (L234A/L235A/L309V) (human) (heavy, as listed by the source, chain 1 of 2): as the sequence (heavy, as listed by the source, chain 1 of 2) above
Chain of ADI-26906 IgG1 LALA-L309V (L234A/L235A/L309V) (human) (light, as listed by the source, chain 2 of 2): as the sequence (light, as listed by the source, chain 2 of 2) above
Chain of ADI-26906 IgG1 LALE-P331S (L234A/L235E/P331S) (human) (heavy, as listed by the source, chain 1 of 2): as the sequence (heavy, as listed by the source, chain 1 of 2) above
Chain of ADI-26906 IgG1 LALE-P331S (L234A/L235E/P331S) (human) (light, as listed by the source, chain 2 of 2): as the sequence (light, as listed by the source, chain 2 of 2) above
Chain of ADI-26906 IgG1 LALA-Y296F (L234A/L235A/Y296F) (human) (heavy, as listed by the source, chain 1 of 2): as the sequence (heavy, as listed by the source, chain 1 of 2) above
Chain of ADI-26906 IgG1 LALA-Y296F (L234A/L235A/Y296F) (human) (light, as listed by the source, chain 2 of 2): as the sequence (light, as listed by the source, chain 2 of 2) above
Chain of ADI-26906 IgG1 LALA-A327G (L234A/L235A/A327G) (human) (heavy, as listed by the source, chain 1 of 2): as the sequence (heavy, as listed by the source, chain 1 of 2) above
Chain of ADI-26906 IgG1 LALA-A327G (L234A/L235A/A327G) (human) (light, as listed by the source, chain 2 of 2): as the sequence (light, as listed by the source, chain 2 of 2) above
Chain of ADI-26906 IgG1 LALE-A330S/P331S (L234A/L235E/A330S/P331S) (human) (heavy, as listed by the source, chain 1 of 2): as the sequence (heavy, as listed by the source, chain 1 of 2) above
Chain of ADI-26906 IgG1 LALE-A330S/P331S (L234A/L235E/A330S/P331S) (human) (light, as listed by the source, chain 2 of 2): as the sequence (light, as listed by the source, chain 2 of 2) above
Chain of ADI-26906 IgG1 L234A/L235E (human) (heavy, as listed by the source, chain 1 of 2): as the sequence (heavy, as listed by the source, chain 1 of 2) above
Chain of ADI-26906 IgG1 L234A/L235E (human) (light, as listed by the source, chain 2 of 2): as the sequence (light, as listed by the source, chain 2 of 2) above
Chain of ADI-26906 IgG1 LALE-L328A (L234A/L235E/L328A) (human) (heavy, as listed by the source, chain 1 of 2): as the sequence (heavy, as listed by the source, chain 1 of 2) above
Chain of ADI-26906 IgG1 LALE-L328A (L234A/L235E/L328A) (human) (light, as listed by the source, chain 2 of 2): as the sequence (light, as listed by the source, chain 2 of 2) above
Chain of ADI-26906 IgG1 LALA-L328A (L234A/L235A/L328A) (human) (heavy, as listed by the source, chain 1 of 2): as the sequence (heavy, as listed by the source, chain 1 of 2) above
Chain of ADI-26906 IgG1 LALA-L328A (L234A/L235A/L328A) (human) (light, as listed by the source, chain 2 of 2): as the sequence (light, as listed by the source, chain 2 of 2) above

Turning to “human FcγRI (CD64) (from UniProt P12314 16-374) (receptor)”, the response (RU) in test [1] came to 21.6 RU; in [2] it was 22.9 RU; in test [3], 17.7 RU; in test [4] it was 14.3 RU; in test [5], 3.3 RU; in test [6], 15.8 RU. Besides, the response (RU) in test [7] stood at 4.9 RU; in test [8], 2.6 RU; in test [9], 4.3 RU; in test [10], 13.6 RU; in test [11], 1.8 RU; in [12] it was 3.5 RU. In addition, the response (RU) in test [13] came to 19.9 RU; in test [14], 19.9 RU; in test [15], 9.7 RU; in test [16], 19.1 RU; in test [17], 25.2 RU; in test [18], 23.5 RU. In addition, the response (RU) in test [19] was 3.8 RU; in [20], 3.3 RU; in test [21], 4.2 RU; in test [22], 4.6 RU.
